The values below come from publication PMC3045587.

Series [1] has as its target T1, hTra2-β RRM (Homo sapiens, UniProt P62995 110-201).
T1 sequence: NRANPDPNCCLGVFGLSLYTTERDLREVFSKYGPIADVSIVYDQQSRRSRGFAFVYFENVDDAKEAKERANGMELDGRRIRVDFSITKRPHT
The series is described as follows: ITC. (In general: ITC needs no label: the signal is the heat of the interaction.)

In series [2] the target is T1, hTra2-β RRM. The series is described as follows: NMR titration.
For series [3], the target named is T1, hTra2-β RRM. The series is described as follows: ITC. The source holds these as a separate data set.

The term Kd denotes a measure of binding affinity in units of concentration.

In the series with hTra2-β RRM [1], GACUUCAACAAGUC (structured_RNA) [14-mer CAA stem-loop RNA] had a Kd of 3.48 µM.

Turning to UCAAU (ssRNA), the Kd in the series with hTra2-β RRM [2] is about 40 µM; with hTra2-β RRM [3], 47.8 µM. With GAAGAA (ssRNA) [(GAA)2, GAAGAA], the Kd with hTra2-β RRM [1] turned out to be 1.5 µM.
